From article PMC5700546
Where two headings read alike, the source gives them in different places.

Columns and labels:
Assay in all cases: AUC; sedimentation velocity, interference optics; 40 uM protein in 25 mM TES, 100 mM NaCl, 100 uM EDTA, pH 7.4; apo samples and samples with 250 uM Cu2+ and Ca2+; no reducing agent; c(s) distribution by SedFit; self-association (monomer, dimer, higher oligomers)
[1] = target: human S100A5, wildtype (human) (UniProt P33763)
[2] = target: human S100A5, wildtype (human) (UniProt P33763); remark: listed apart in the source
[3] = target: human S100A5 C43S/C79S, Cysteine-free variant (human) (UniProt P33763)

“human S100A5, wildtype (from UniProt P33763 1-92) (natural protein)” showed a stoichiometry N [1] greater than 12 and a stoichiometry N [2] of 2.

“human S100A5 C43S/C79S, Cysteine-free variant (from UniProt P33763 1-92) (natural protein)” showed a stoichiometry N [3] of 2.
